Paper PMC314469, “Protein Interaction Networks by Proteome Peptide Scanning” (PLoS Biology, 2004)

T1: Boi1 SH3 (BOI1_YEAST), P38041
T1 chain: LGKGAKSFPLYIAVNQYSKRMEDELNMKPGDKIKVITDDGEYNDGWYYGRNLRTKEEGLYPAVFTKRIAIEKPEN

T2: Boi2 SH3 (BOI2_YEAST), P39969
T2 chain: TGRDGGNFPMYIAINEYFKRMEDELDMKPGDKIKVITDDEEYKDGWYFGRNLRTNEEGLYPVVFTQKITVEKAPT

T3: Myo5 SH3 (MYO5_YEAST), Q04439
T3 chain: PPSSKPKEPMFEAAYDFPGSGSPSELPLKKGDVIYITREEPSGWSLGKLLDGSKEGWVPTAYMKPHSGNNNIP

T4: Rvs167 SH3 (RV167_YEAST), P39743
T4 chain: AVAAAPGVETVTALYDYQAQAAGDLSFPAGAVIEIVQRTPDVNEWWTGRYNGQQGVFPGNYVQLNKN

T5: Yfr024 SH3 (LSB3_YEAST), P43603
T5 chain: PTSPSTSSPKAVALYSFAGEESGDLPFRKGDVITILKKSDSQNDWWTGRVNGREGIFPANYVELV

T6: Yhr016c SH3 (YSC84_YEAST), P32793
T6 chain: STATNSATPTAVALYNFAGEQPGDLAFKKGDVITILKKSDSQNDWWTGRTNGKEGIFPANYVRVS


Biological target: T1, Boi1 SH3 (BOI1_YEAST), P38041
Assay: SPOT array

| normalised SPOT signal, Boehringer light units (BLU); mean over the file's lines of this peptide | Binder |
| --- | --- |
| 85.4 | LLEERNNPDIPVDK [YBR055C 407-420] |
| 139 | LITDKEYPVRPAYT [YKL196C 79-92] |
| 711 | LKKQKAIPSSPSGM [YMR179W 684-697] |
| 796 | LMSLKRFPQLPSNT [YOL125W 162-175] |
| 51.9 | LNATKISPSAPSKD [YAR002W 346-359] |
| 120 | LIWHKNKPTEPDNK [YAR009C 1032-1045] |
| 152 | LKDNRLLPSWPKRG [YIL047C 206-219] |
| 126 | LLVTKERPRFPEDD [YIL129C 688-701] |
| 72.6 | LGSEKSSPLAPAVA [YDL197C 382-395] |
| 268 | LIWHKNKPTKPDNK [YBL101W-B 1606-1619] |
| -0 | LLPTKLIPSIPGGK [YER105C 312-325] |
| 1870 | LKHTKNKPKNPDTA [YGL131C 1018-1031] |
| 139 | LIWHKSKPVKPTNK [YBL005W-B 1591-1604] |
| 15.5 | LIDFKDYPDVPKVP [YNL231C 198-211] |

Biological target: T2, Boi2 SH3 (BOI2_YEAST), P39969
Assay: SPOT array

| normalised SPOT signal, Boehringer light units (BLU); mean over the file's lines of this peptide | Binder |
| --- | --- |
| 19.6 | LLEERNNPDIPVDK [YBR055C 407-420] |
| 21.9 | LITDKEYPVRPAYT [YKL196C 79-92] |
| 16.1 | LKKQKAIPSSPSGM [YMR179W 684-697] |
| 294 | LMSLKRFPQLPSNT [YOL125W 162-175] |
| 0 | LNATKISPSAPSKD [YAR002W 346-359] |
| 29.2 | LIWHKNKPTEPDNK [YAR009C 1032-1045] |
| 21.8 | LKDNRLLPSWPKRG [YIL047C 206-219] |
| 7.5 | LLVTKERPRFPEDD [YIL129C 688-701] |
| 52.5 | LGSEKSSPLAPAVA [YDL197C 382-395] |
| 27.9 | LIWHKNKPTKPDNK [YBL101W-B 1606-1619] |
| 3.5 | LLPTKLIPSIPGGK [YER105C 312-325] |
| 25.8 | LKHTKNKPKNPDTA [YGL131C 1018-1031] |
| 30.5 | LIWHKSKPVKPTNK [YBL005W-B 1591-1604] |
| 47.9 | LIDFKDYPDVPKVP [YNL231C 198-211] |

Biological target: T3, Myo5 SH3 (MYO5_YEAST), Q04439
Assay: SPOT array

| normalised SPOT signal, Boehringer light units (BLU); mean over the file's lines of this peptide | Binder |
| --- | --- |
| 312 | LLEERNNPDIPVDK [YBR055C 407-420] |
| 136 | LITDKEYPVRPAYT [YKL196C 79-92] |
| 307 | LKKQKAIPSSPSGM [YMR179W 684-697] |
| 348 | LMSLKRFPQLPSNT [YOL125W 162-175] |
| 114 | LNATKISPSAPSKD [YAR002W 346-359] |
| 155 | LIWHKNKPTEPDNK [YAR009C 1032-1045] |
| 518 | LKDNRLLPSWPKRG [YIL047C 206-219] |
| 33.7 | LLVTKERPRFPEDD [YIL129C 688-701] |
| 122 | LGSEKSSPLAPAVA [YDL197C 382-395] |
| 300 | LIWHKNKPTKPDNK [YBL101W-B 1606-1619] |
| 172 | LLPTKLIPSIPGGK [YER105C 312-325] |
| 406 | LKHTKNKPKNPDTA [YGL131C 1018-1031] |
| 354 | LIWHKSKPVKPTNK [YBL005W-B 1591-1604] |
| 154 | LIDFKDYPDVPKVP [YNL231C 198-211] |

Biological target: T4, Rvs167 SH3 (RV167_YEAST), P39743
Assay: SPOT array

| normalised SPOT signal, Boehringer light units (BLU); mean over the file's lines of this peptide | Binder |
| --- | --- |
| 38.3 | LLEERNNPDIPVDK [YBR055C 407-420] |
| 17.5 | LITDKEYPVRPAYT [YKL196C 79-92] |
| 35.2 | LKKQKAIPSSPSGM [YMR179W 684-697] |
| 1340 | LMSLKRFPQLPSNT [YOL125W 162-175] |
| 29.4 | LNATKISPSAPSKD [YAR002W 346-359] |
| 102 | LIWHKNKPTEPDNK [YAR009C 1032-1045] |
| 144 | LKDNRLLPSWPKRG [YIL047C 206-219] |
| 16.4 | LLVTKERPRFPEDD [YIL129C 688-701] |
| 64.8 | LGSEKSSPLAPAVA [YDL197C 382-395] |
| 85.3 | LIWHKNKPTKPDNK [YBL101W-B 1606-1619] |
| 17.2 | LLPTKLIPSIPGGK [YER105C 312-325] |
| 39.5 | LKHTKNKPKNPDTA [YGL131C 1018-1031] |
| 71.9 | LIWHKSKPVKPTNK [YBL005W-B 1591-1604] |
| 28.2 | LIDFKDYPDVPKVP [YNL231C 198-211] |

Each binder was assayed against Sho1 SH3 (SHO1_YEAST), P40073 (assay: SPOT array).
Sho1 SH3 (SHO1_YEAST), P40073, sequence (P40073 295-366): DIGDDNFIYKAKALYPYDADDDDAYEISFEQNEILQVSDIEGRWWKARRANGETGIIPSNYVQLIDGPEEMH

| normalised SPOT signal, Boehringer light units (BLU); mean over the file's lines of this peptide | Binder |
| --- | --- |
| 26.1 | LLEERNNPDIPVDK [YBR055C 407-420] |
| 7.7 | LITDKEYPVRPAYT [YKL196C 79-92] |
| 204 | LKKQKAIPSSPSGM [YMR179W 684-697] |
| 661 | LMSLKRFPQLPSNT [YOL125W 162-175] |
| 31.8 | LNATKISPSAPSKD [YAR002W 346-359] |
| 82.2 | LIWHKNKPTEPDNK [YAR009C 1032-1045] |
| 350 | LKDNRLLPSWPKRG [YIL047C 206-219] |
| 47.5 | LLVTKERPRFPEDD [YIL129C 688-701] |
| 11.2 | LGSEKSSPLAPAVA [YDL197C 382-395] |
| 106 | LIWHKNKPTKPDNK [YBL101W-B 1606-1619] |
| 17.1 | LLPTKLIPSIPGGK [YER105C 312-325] |
| 45.5 | LKHTKNKPKNPDTA [YGL131C 1018-1031] |
| 106 | LIWHKSKPVKPTNK [YBL005W-B 1591-1604] |
| 36 | LIDFKDYPDVPKVP [YNL231C 198-211] |

Biological target: T5, Yfr024 SH3 (LSB3_YEAST), P43603
Assay: SPOT array

| normalised SPOT signal, Boehringer light units (BLU); mean over the file's lines of this peptide | Binder |
| --- | --- |
| 38.8 | LLEERNNPDIPVDK [YBR055C 407-420] |
| 126 | LITDKEYPVRPAYT [YKL196C 79-92] |
| 255 | LKKQKAIPSSPSGM [YMR179W 684-697] |
| 2420 | LMSLKRFPQLPSNT [YOL125W 162-175] |
| 38.8 | LNATKISPSAPSKD [YAR002W 346-359] |
| 587 | LIWHKNKPTEPDNK [YAR009C 1032-1045] |
| 3640 | LKDNRLLPSWPKRG [YIL047C 206-219] |
| 168 | LLVTKERPRFPEDD [YIL129C 688-701] |
| 21.4 | LGSEKSSPLAPAVA [YDL197C 382-395] |
| 862 | LIWHKNKPTKPDNK [YBL101W-B 1606-1619] |
| 154 | LLPTKLIPSIPGGK [YER105C 312-325] |
| 47.5 | LKHTKNKPKNPDTA [YGL131C 1018-1031] |
| 1320 | LIWHKSKPVKPTNK [YBL005W-B 1591-1604] |
| 12.7 | LIDFKDYPDVPKVP [YNL231C 198-211] |

Biological target: T6, Yhr016c SH3 (YSC84_YEAST), P32793
Assay: SPOT array

| normalised SPOT signal, Boehringer light units (BLU); mean over the file's lines of this peptide | Binder |
| --- | --- |
| 19.5 | LLEERNNPDIPVDK [YBR055C 407-420] |
| 19.3 | LITDKEYPVRPAYT [YKL196C 79-92] |
| 32.4 | LKKQKAIPSSPSGM [YMR179W 684-697] |
| 554 | LMSLKRFPQLPSNT [YOL125W 162-175] |
| 8.4 | LNATKISPSAPSKD [YAR002W 346-359] |
| 94.9 | LIWHKNKPTEPDNK [YAR009C 1032-1045] |
| 488 | LKDNRLLPSWPKRG [YIL047C 206-219] |
| 28.4 | LLVTKERPRFPEDD [YIL129C 688-701] |
| 26.8 | LGSEKSSPLAPAVA [YDL197C 382-395] |
| 71.1 | LIWHKNKPTKPDNK [YBL101W-B 1606-1619] |
| 14.3 | LLPTKLIPSIPGGK [YER105C 312-325] |
| 16.8 | LKHTKNKPKNPDTA [YGL131C 1018-1031] |
| 73 | LIWHKSKPVKPTNK [YBL005W-B 1591-1604] |
| 2 | LIDFKDYPDVPKVP [YNL231C 198-211] |
